Experimental data reported in PMC8660799, “Cryo-EM reveals unique structural features of the FhuCDB Escherichia coli ferrichrome importer” (Communications Biology, 2021).
Residue numbers refer to the chain shown, from its start.

Legend:
Test in all cases: MST; 40 nM FhuCB (wild type or FhuB mutant) in detergent, His-tag labelled with red-tris-NTA 2nd generation dye; serial dilution of 1.6 μM FhuD with substrate ferrichrome; with ATP-Mg; Monolith NT.115pico, 20% LED power, medium MST power
Conditions in all cases: both partners purified
FhuCB with FhuB R390A = biological target: T1, FhuCB with FhuB R390A (Escherichia coli, UniProt P07821 1-265; P06972 1-660, R390A, red-tris-NTA 2nd generation dye on the His-tag)
T1 construct: FhuC, ATPase subunit, Escherichia coli; as in Dm2; FhuB, membrane subunit, Escherichia coli, 660 residues; Mutant made on the FhuCB-pET15b construct by direct mutagenesis; source: E. coli BL21(DE3) C43, purified (TALON, Superose 6 gel filtration) in LMNG; not shown: His-tag, N-terminal, kept; copies: 2 + 1
T1 sequence (looked up) 1: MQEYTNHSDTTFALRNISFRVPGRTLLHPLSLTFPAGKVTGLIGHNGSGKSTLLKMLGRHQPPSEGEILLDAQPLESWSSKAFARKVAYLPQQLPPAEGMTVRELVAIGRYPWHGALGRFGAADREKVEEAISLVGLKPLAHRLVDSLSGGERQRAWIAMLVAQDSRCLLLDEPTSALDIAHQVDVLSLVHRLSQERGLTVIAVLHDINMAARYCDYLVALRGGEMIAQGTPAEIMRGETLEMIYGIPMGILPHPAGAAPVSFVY
T1 sequence (looked up) 2: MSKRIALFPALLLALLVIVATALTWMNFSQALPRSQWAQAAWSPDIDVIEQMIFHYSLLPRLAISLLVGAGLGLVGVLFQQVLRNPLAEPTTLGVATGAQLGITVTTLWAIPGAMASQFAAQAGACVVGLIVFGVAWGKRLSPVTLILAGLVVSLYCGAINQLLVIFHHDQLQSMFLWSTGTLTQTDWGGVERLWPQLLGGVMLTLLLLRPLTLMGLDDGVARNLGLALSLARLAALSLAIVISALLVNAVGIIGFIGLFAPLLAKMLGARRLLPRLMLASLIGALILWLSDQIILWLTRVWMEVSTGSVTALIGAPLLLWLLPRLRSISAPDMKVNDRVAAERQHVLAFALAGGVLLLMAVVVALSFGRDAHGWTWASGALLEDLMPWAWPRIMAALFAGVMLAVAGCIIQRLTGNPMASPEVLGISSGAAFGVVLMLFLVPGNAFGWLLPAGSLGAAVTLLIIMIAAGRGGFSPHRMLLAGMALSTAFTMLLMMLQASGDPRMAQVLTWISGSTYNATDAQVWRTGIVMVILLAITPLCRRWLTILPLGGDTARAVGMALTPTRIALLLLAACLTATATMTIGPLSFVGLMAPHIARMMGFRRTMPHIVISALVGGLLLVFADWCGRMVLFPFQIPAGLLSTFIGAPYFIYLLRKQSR

FhuCB with FhuB Q636A = biological target: T2, FhuCB with FhuB Q636A (Escherichia coli, UniProt P07821 1-265; P06972 1-660, Q636A, red-tris-NTA 2nd generation dye on the His-tag)
T2 construct: FhuC, ATPase subunit, Escherichia coli; as in Dm2; FhuB, membrane subunit, Escherichia coli, 660 residues; Mutant made on the FhuCB-pET15b construct by direct mutagenesis; source: E. coli BL21(DE3) C43, purified (TALON, Superose 6 gel filtration) in LMNG; not shown: His-tag, N-terminal, kept; copies: 2 + 1
T2 sequence (looked up) 1: T1 sequence (looked up) 1
T2 sequence (looked up) 2: T1 sequence (looked up) 2 with A390R, Q636A

FhuCB with FhuB E304A = biological target: T3, FhuCB with FhuB E304A (Escherichia coli, UniProt P07821 1-265; P06972 1-660, E304A, red-tris-NTA 2nd generation dye on the His-tag)
T3 construct: FhuC, ATPase subunit, Escherichia coli; as in Dm2; FhuB, membrane subunit, Escherichia coli, 660 residues; Mutant made on the FhuCB-pET15b construct by direct mutagenesis; source: E. coli BL21(DE3) C43, purified (TALON, Superose 6 gel filtration) in LMNG; not shown: His-tag, N-terminal, kept; copies: 2 + 1
T3 sequence (looked up) 1: T1 sequence (looked up) 1
T3 sequence (looked up) 2: T1 sequence (looked up) 2 with E304A, A390R

- Kd (FhuCB with FhuB R390A): 75.8 nM
- Kd (FhuCB with FhuB Q636A): 90.2 nM
- Kd (FhuCB with FhuB E304A): 15.1 nM
B1: FhuD (natural protein, Escherichia coli)
chain: AAIDPNRIVALEWLPVELLLALGIVPYGVADTINYRLWVSEPPLPDSVIDVGLRTEPNLELLTEMKPSFMVWSAGYGPSPEMLARIAPGRGFNFSDGKQPLAMARKSLTEMADLLNLQSAAETHLAQYEDFIRSMKPRFVKRGARPLLLTTLIDPRHMLVFGPNSLFQEILDEYGIPNAWQGETNFWGSTAVSIDRLAAYKDVDVLCFDHDNSKDMDALMATPLWQAMPFVRAGRFQRVPAVWFYGATLSAMHFVRVLDNAIGGKA
notes: In 'FhuD-ferrichrome' the protein was loaded with the small molecule ferrichrome; also called FhuD-ferrichrome (when loaded with ferrichrome)
